In IntAct's records for PubMed 25465129:

Target: ab1ip_mouse Apbb1ip (UniProt Q8R5A3)
UniProt Q8R5A3, sequence (Q8R5A3 whole entry): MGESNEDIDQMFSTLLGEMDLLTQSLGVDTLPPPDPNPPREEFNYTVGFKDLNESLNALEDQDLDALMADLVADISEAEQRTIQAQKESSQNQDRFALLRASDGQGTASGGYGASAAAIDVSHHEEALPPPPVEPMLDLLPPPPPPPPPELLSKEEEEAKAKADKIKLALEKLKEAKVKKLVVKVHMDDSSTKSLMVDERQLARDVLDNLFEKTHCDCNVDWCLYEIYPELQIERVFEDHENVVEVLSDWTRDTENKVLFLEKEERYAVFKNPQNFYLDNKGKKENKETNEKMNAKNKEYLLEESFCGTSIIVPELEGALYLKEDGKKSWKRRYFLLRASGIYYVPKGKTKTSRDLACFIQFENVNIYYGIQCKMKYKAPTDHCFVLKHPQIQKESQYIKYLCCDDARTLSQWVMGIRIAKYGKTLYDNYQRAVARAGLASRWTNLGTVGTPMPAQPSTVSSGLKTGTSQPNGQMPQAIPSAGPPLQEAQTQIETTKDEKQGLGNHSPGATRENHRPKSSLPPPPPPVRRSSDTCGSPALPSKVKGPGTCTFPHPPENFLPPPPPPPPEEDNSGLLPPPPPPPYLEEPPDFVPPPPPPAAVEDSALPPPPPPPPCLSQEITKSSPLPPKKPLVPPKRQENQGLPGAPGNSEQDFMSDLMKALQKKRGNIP

Row | effect of a mutation on the interaction | Substance
1 | decreasing interaction strength | Talin-1 (Mus musculus), P26039 V1540Y
2 | decreasing interaction strength | Talin-1 (Mus musculus), P26039 V871Y
3 | disrupting interaction strength | Talin-1 (Mus musculus), P26039 V871Y;V1540Y
